According to patent publication US20130295121A1 (published 2013):

What was measured:
soluble CD16A (sCD16A) = target: T1, soluble CD16A (sCD16A) (human, UniProt P08637 17-208, biotin- or HRP-conjugated where used as the ELISA probe); assay: SPR (BIAcore), receptor immobilized
T1 construct: extracellular domain; Printed only as soluble CD16A; Also used here where an ELISA names only CD16 or CD16A; also called hCD16A; FcγRIIIA

soluble CD32A (sCD32A) = target: T2, soluble CD32A (sCD32A) (UniProt P12318 34-217, limits assumed); assay: SPR (BIAcore), receptor immobilized
T2 construct: extracellular domain; Negative control receptor in SPR; also called control receptor
T2 sequence (looked up): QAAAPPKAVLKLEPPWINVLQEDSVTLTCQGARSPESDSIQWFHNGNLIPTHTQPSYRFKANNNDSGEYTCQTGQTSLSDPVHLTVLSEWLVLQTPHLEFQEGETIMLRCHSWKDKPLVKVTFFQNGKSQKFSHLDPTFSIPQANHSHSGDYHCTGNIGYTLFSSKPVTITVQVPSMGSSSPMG

soluble CD32B (sCD32B) = target: T3, soluble CD32B (sCD32B) (human, UniProt P31994 43-217, biotinylated where used as the ELISA probe); assay: SPR (BIAcore), sCD32B immobilized, diabody 6.25-200 nM as analyte, bivalent analyte fit
T3 construct: extracellular domain; also called huCD32B; FcγRIIB
T3 sequence (looked up): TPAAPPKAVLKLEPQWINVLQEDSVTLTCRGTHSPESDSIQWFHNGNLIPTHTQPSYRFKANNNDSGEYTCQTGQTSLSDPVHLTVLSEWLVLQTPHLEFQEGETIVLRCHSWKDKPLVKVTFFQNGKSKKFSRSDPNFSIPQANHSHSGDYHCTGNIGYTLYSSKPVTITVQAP

T1 sequence (P08637 17-208): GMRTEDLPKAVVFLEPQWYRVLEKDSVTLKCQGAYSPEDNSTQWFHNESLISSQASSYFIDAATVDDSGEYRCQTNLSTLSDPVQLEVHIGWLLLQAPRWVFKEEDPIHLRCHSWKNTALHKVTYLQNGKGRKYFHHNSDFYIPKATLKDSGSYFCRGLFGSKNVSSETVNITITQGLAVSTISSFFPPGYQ

B1: h2B6 covalent monospecific diabody (CMD) (other)
chain: EIVLTQSPDFQSVTPKEKVTFTCRTSQSIGTNIHWYQQKPDQSPKLLIKEVSESISGVPSRFSGSGSGTDFTLTINSLEAEDAATYYCQQSNTWPFTFGGGTKVEIKGGGSGGGGQVQLVQSGAEVKKPGASVKVSCKASGYTFTNYWIHWVRQAPGQGLEWIGVIDPSDTYPNYNKKFKGRVTMTVVVSTSTAYMELRSLRSDDTAVYYCARNGDSDYYSGMDYWGQGTTVTVSSLGGC
notes: Homodimer of construct 4 (hu2B6VL-hu2B6VH-LGGC); also called h2B6 CMD; h2B6 diabody
For B1, the binding result (soluble CD16A (sCD16A)) was “no binding (tested: 100 nM)”, the binding result (soluble CD32A (sCD32A)) was “no binding (tested: 100 nM)” and the Kd (soluble CD32B (sCD32B)) was 21 nM.
